Assay results reported in the supplement of paper PMC11246515.
± gives the standard deviation of the averaged measurements.

Assay: total protein half-life in vivo (active degradation + dilution); higher = more stable protein
[1] = E. coli NCM3722 delta-clpP delta-lon delta-hslV, growth: N-lim chemostat, doubling time 6 h
[2] = E. coli NCM3722 delta-smpB, growth: N-lim chemostat, doubling time 6 h
[3] = wild type E. coli NCM3722, growth: C-lim chemostat, doubling time 3 h
[4] = wild type E. coli NCM3722, growth: C-lim chemostat, doubling time 6 h
[5] = wild type E. coli NCM3722, growth: C-lim chemostat, doubling time 12 h
[6] = wild type E. coli NCM3722, growth: N-lim chemostat, doubling time 12 h
[7] = E. coli NCM3722 delta-clpP, growth: N-lim chemostat, doubling time 6 h
[8] = E. coli NCM3722 delta-hslV, growth: N-lim chemostat, doubling time 6 h
[9] = E. coli NCM3722 delta-lon, growth: N-lim chemostat, doubling time 6 h
[10] = wild type E. coli NCM3722, growth: N-lim chemostat, doubling time 6 h
[11] = wild type E. coli NCM3722, growth: P-lim chemostat, doubling time 6 h
[12] = wild type E. coli NCM3722, growth: P-lim chemostat, doubling time 12 h

Sequence	total protein half-life in vivo [1] [h]	total protein half-life in vivo [2] [h]	total protein half-life in vivo [3] [h]	total protein half-life in vivo [4] [h]	total protein half-life in vivo [5] [h]	total protein half-life in vivo [6] [h]	total protein half-life in vivo [7] [h]	total protein half-life in vivo [8] [h]	total protein half-life in vivo [9] [h]	total protein half-life in vivo [10] [h]	total protein half-life in vivo [11] [h]	total protein half-life in vivo [12] [h]
MLEMLMQWYRRRFSDPEAIALLVILVAGFGIIFFFSGLLAPLLVAIVLAYLLEWPTVRLQSIGCSRRWATSIVLVVFVGILLLMAFVVLPIAWQQGIYLIRDMPGMLNKLSDFAATLPRRYPALMDAGIIDAMAENMRSRMLTMGDSVVKISLASLVGLLTIAVYLVLVPLMVFFLLKDKEQMLNAVRRVLPRNRGLAGQVWKEMNQQITNYIRGKVLEMIVVGIATWLGFLLFGLNYSLLLAVLVGFSVLIPYIGAFVVTIPVVGVALFQFGAGTEFWSCFAVYLIIQALDGNLLVPVLFSEAVNLHPLVIILSVVIFGGLWGFWGVFFAIPLATLIKAVIHAWPDGQIAQE [P0AFI9]	> 8	> 8	> 4	6.12 ± 0.64	12.2 ± 0.49	10.4 ± 1.8	–	–	–	–	–	–
MENNEIQSVLMNALSLQEVHVSGDGSHFQVIAVGELFDGMSRVKKQQTVYGPLMEYIADNRIHAVSIKAYTPAEWARDRKLNGF [P0A9W6]	5.36 ± 0.32	4.08 ± 0.3	3.11 ± 0.42	4.5	7.8 ± 0.37	7.378 ± 0.011	3.86 ± 0.21	4.35 ± 0.56	5.87 ± 1.2	4.09 ± 0.043	4.79 ± 0.25	10.8 ± 1.1
MQWQTKLPLIAILRGITPDEALAHVGAVIDAGFDAVEIPLNSPQWEQSIPAIVDAYGDKALIGAGTVLKPEQVDALARMGCQLIVTPNIHSEVIRRAVGYGMTVCPGCATATEAFTALEAGAQALKIFPSSAFGPQYIKALKAVLPSDIAVFAVGGVTPENLAQWIDAGCAGAGLGSDLYRAGQSVERTAQQAAAFVKAYREAVQ [Q6BF16]	4.76	–	2.04	3.84	8.18	–	–	–	–	–	–	–
MFKRRYVTLLPLFVLLAACSSKPKPTETDTTTGTPSGGFLLEPQHNVMQMGGDFANNPNAQQFIDKMVNKHGFDRQQLQEILSQAKRLDSVLRLMDNQAPTTSVKPPSGPNGAWLRYRKKFITPDNVQNGVVFWNQYEDALNRAWQVYGVPPEIIVGIIGVETRWGRVMGKTRILDALATLSFNYPRRAEYFSGELETFLLMARDEQDDPLNLKGSFAGAMGYGQFMPSSYKQYAVDFSGDGHINLWDPVDAIGSVANYFKAHGWVKGDQVAVMANGQAPGLPNGFKTKYSISQLAAAGLTPQQPLGNHQQASLLRLDVGTGYQYWYGLPNFYTITRYNHSTHYAMAVWQLGQAVALARVQ	5.38 ± 0.079	5.5 ± 0.089	3.61	–	–	10.8	5.65 ± 2	–	–	5.55 ± 0.14	5.1	> 16
MSNAITMGIFWHLIGAASAACFYAPFKKVKKWSWETMWSVGGIVSWIILPWAISALLLPNFWAYYSSFSLSTRLPVFLFGAMWGIGNINYGLTMRYLGMSMGIGIAIGITLIVGTLMTPIINGNFDVLISTEGGRMTLLGVLVALIGVGIVTRAGQLKERKMGIKAEEFNLKKGLVLAVMCGIFSAGMSFAMNAAKPMHEAAAALGVDPLYVALPSYVVIMGGGAIINLGFCFIRLAKVKDLSLKADFSLAKSLIIHNVLLSTLGGLMWYLQFFFYAWGHARIPAQYDYISWMLHMSFYVLCGGIVGLVLKEWNNAGRRPVTVLSLGCVVIIVAANIVGIGMAN	–	–	–	–	–	7.44	–	–	–	–	–	–
MSQRGLEALLRPKSIAVIGASMKPNRAGYLMMRNLLAGGFNGPVLPVTPAWKAVLGVLAWPDIASLPFTPDLAVLCTNASRNLALLEELGEKGCKTCIILSAPASQHEDLRACALRHNMRLLGPNSLGLLAPWQGLNASFSPVPIKRGKLAFISQSAAVSNTILDWAQQRKMGFSYFIALGDSLDIDVDELLDYLARDSKTSAILLYLEQLSDARRFVSAARSASRNKPILVIKSGRSPAAQRLLNTTAGMDPAWDAAIQRAGLLRVQDTHELFSAVETLSHMRPLRGDRLMIISNGAAPAALALDALWSRNGKLATLSEETCQKLRDALPEHVAISNPLDLRDDASSEHYIKTLDILLHSQDFDALMVIHSPSAAAPATESAQVLIEAVKHHPRSKYVSLLTNWCGEHSSQEARRLFSEAGLPTYRTPEGTITAFMHMVEYRRNQKQLRETPALPSNLTSNTAEAHLLLQQAIAEGATSLDTHEVQPILQAYGMNTLPTWIASDSTEAVHIAEQIGYPVALKLRSPDIPHKSEVQGVMLYLRTANEVQQAANAIFDRVKMAWPQARVHGLLVQSMANRAGAQELRVVVEHDPVFGPLIMLGEGGVEWRPEDQAVVALPPLNMNLARYLVIQGIKSKKIRARSALRPLDVAGLSQLLVQVSNLIVDCPEIQRLDIHPLLASGSEFTALDVTLDISPFEGDNESRLAVRPYPHQLEEWVELKNGERCLFRPILPEDEPQLQQFISRVTKEDLYYRYFSEINEFTHEDLANMTQIDYDREMAFVAVRRIDQTEEILGVTRAISDPDNIDAEFAVLVRSDLKGLGLGRRLMEKLITYTRDHGLQRLNGITMPNNRGMVALARKLGFNVDIQLEEGIVGLTLNLAQREES	5.32 ± 0.66	4.92 ± 0.72	3.28 ± 0.35	6.133 ± 0.015	12.2 ± 0.95	7.46 ± 0.52	5.3 ± 0.37	4.54 ± 0.15	4.46 ± 0.67	5 ± 0.23	6.35 ± 0.48	14.1 ± 0.23
MKKLLPILIGLSLSGFSSLSQAENLMQVYQQARLSNPELRKSAADRDAAFEKINEARSPLLPQLGLGADYTYSNGYRDANGINSNATSASLQLTQSIFDMSKWRALTLQEKAAGIQDVTYQTDQQTLILNTATAYFNVLNAIDVLSYTQAQKEAIYRQLDQTTQRFNVGLVAITDVQNARAQYDTVLANEVTARNNLDNAVEQLRQITGNYYPELAALNVENFKTDKPQPVNALLKEAEKRNLSLLQARLSQDLAREQIRQAQDGHLPTLDLTASTGISDTSYSGSKTRGAAGTQYDDSNMGQNKVGLSFSLPIYQGGMVNSQVKQAQYNFVGASEQLESAHRSVVQTVRSSFNNINASISSINAYKQAVVSAQSSLDAMEAGYSVGTRTIVDVLDATTTLYNAKQELANARYNYLINQLNIKSALGTLNEQDLLALNNALSKPVSTNPENVAPQTPEQNAIADGYAPDSPAPVVQQTSARTTTSNGHNPFRN	6.4 ± 0.68	6.09 ± 0.28	3.15 ± 0.091	6.46 ± 0.065	12.5 ± 0.56	13.3 ± 0.99	–	7.27 ± 0.62	6.96 ± 0.25	5.95 ± 0.79	5.09 ± 0.13	10.7 ± 0.21
MIDTTLPLTDIHRHLDGNIRPQTILELGRQYNISLPAQSLETLIPHVQVIANEPDLVSFLTKLDWGVKVLASLDACRRVAFENIEDAARHGLHYVELRFSPGYMAMAHQLPVAGVVEAVIDGVREGCRTFGVQAKLIGIMSRTFGEAACQQELEAFLAHRDQITALDLAGDELGFPGSLFLSHFNRARDAGWHITVHAGEAAGPESIWQAIRELGAERIGHGVKAIEDRALMDFLAEQQIGIESCLTSNIQTSTVAELAAHPLKTFLEHGIRASINTDDPGVQGVDIIHEYTVAAPAAGLSREQIRQAQINGLEMAFLSAEEKRALREKVAAK	5.4 ± 0.46	4.49 ± 0.38	2.88 ± 0.36	–	10.6 ± 0.3	7.15 ± 0.088	4.73 ± 0.99	4.41 ± 0.094	5.25 ± 0.55	4.68 ± 0.59	5.63 ± 0.2	11 ± 0.3
